# Results from the RNAGym collection of RNA variant scans (doi:10.7554/elife.80360).
# B1: HDV Ribozyme (parent)
# chain: GGCCGGCAUGGUCCCAGCCUCCUCGCUGGCGCCGGCUGGGCAACAUUCCGAGGGGACCGUCCCCUCGGUAAUGGCGAAUGGGACCCA
# Variants of: B1
# Assay: self-cleavage, relative activity (ratio to wild type); higher = more cleavage; co-transcriptional
row,Variant,self-cleavage
1,GGCCGGCAUGGUCCCAGCCUCCUCGCUGGCGCCGGCUGGGCAAAAUUCCGAGGGGACCGUCCCCUCGGUAAUGGUGAAUGGGACCCA [C44A C75U],0.218
2,GGCCGGCAUGGUCCCAGCCUCCUCGCUGGCGCCGGCUGGGCAAAAUUCCGAGGGGACCGUCCCCUCGGUAAUGGAGAAUGGGACCCA [C44A C75A],0.359
3,GGCCGGCAUGGUCCCAGCCUCCUCGCUGGCGCCGGCUGGGCAUCAUUCCGAGGGGACCGUCCCCUCGGUAGUGGCGAAUGGGACCCA [A43U A71G],0.405
4,GGCCGGCAUGGUCCCAGCCUCCUCGCUGGCGCCGGCUGGGCAUCAUGCCGAGGGGACCGUCCCCUCGGUAAUGGCGAAUGGGACCCA [A43U U47G],0.361
5,GGCCGGCAUGGUCCCAGCCUCCUCGCUGGCGCCGGCUGGGCAUCAUUCCGAGGGGACCGUCCCCUUGGUAAUGGCGAAUGGGACCCA [A43U C66U],0.575
6,GGCCGGCAUGGUCCCAGCCUCCUCGCUGGCGCCGGCUGGGCAUCAUUCCGAGGGGACCGUCCCCUCGGUAAUGGCGAUUGGGACCCA [A43U A78U],0.0489
7,GGCCGGCAUGGUCCCAGCCUCCUCGCUGGCGCCGGCUGGGCAUCAUUCCGAGGGGACCGUCCCCUCGGUAAUGGCGAGUGGGACCCA [A43U A78G],0.262
8,GGCCGGCAUGGUCCCAGCCUCCUCGCUGGCGCCGGCUGGGCAUCAUUCCGAGGAGACCGUCCCCUCGGUAAUGGCGAAUGGGACCCA [A43U G54A],0.487
9,GGCCGGCAUGGUCCCAGCCUCCUCGCUGGCGCCGGCUGGGCAUCAUUCCGAGGGGACCGUCCCCUCGGUAAUGGCAAAUGGGACCCA [A43U G76A],0.554
10,GGCCGGCAUGGUCCCAGCCUCCUCGCUGGCGCCGGCUGGGCAUCAUUCCGAGGGGACCGUCCCGUCGGUAAUGGCGAAUGGGACCCA [A43U C64G],0.506
11,GGCCGGCAUGGUCCCAGCCUCCUCGCUGGCGCCGGCUGGGCAUCAUUCCGAGGGGACCGUCCCUUCGGUAAUGGCGAAUGGGACCCA [A43U C64U],0.588
12,GGCCGGCAUGGUCCCAGCCUCCUCGCUGGCGCCGGCUGGGCAAAAUUCCGAGGGGUCCGUCCCCUCGGUAAUGGCGAAUGGGACCCA [C44A A56U],0.614
13,GGCCGGCAUGGUCCCAGCCUCCUCGCUGGCGCCGGCUGGGCAUCAUUCCGAGGGGGCCGUCCCCUCGGUAAUGGCGAAUGGGACCCA [A43U A56G],0.665
14,GGCCGGCAUGGUCCCAGCCUCCUCGCUGGCGCCGGCUGGGCAAAAUUCCGAGGGGACCGUCCCCUCGGUAAUGGCGAAUGGGAUCCA [C44A C84U],0.431
15,GGCCGGCAUGGUCCCAGCCUCCUCGCUGGCGCCGGCUGGGCAUCAUUCCGAGGGGACCUUCCCCUCGGUAAUGGCGAAUGGGACCCA [A43U G59U],0.783
16,GGCCGGCAUGGUCCCAGCCUCCUCGCUGGCGCCGGCUGGGCAAAAUUCCGAGGGGACAGUCCCCUCGGUAAUGGCGAAUGGGACCCA [C44A C58A],1.01
17,GGCCGGCAUGGUCCCAGCCUCCUCGCUGGCGCCGGCUGGGCAUAAUUCCGAGGGGACCGUCCCCUCGGUAAUGGCGAAUGGGACCCA [A43U C44A],1.16
18,GGCCGGCAUGGUCCCAGCCUCCUCGCUGGCGCCGGCUGGGCAUCAUUCCGAGGGGACCGUCCCCUCGGUAAUCGCGAAUGGGACCCA [A43U G73C],0.43
19,GGCCGGCAUGGUCCCAGCCUCCUCGCUGGCGCCGGCUGGGCAUCAUUCCGAGGGGACCGUCCCCUCGGUAAUAGCGAAUGGGACCCA [A43U G73A],0.322
20,GGCCGGCAUGGUCCCAGCCUCCUCGCUGGCGCCGGCUGGGCAUCAUUCCGAGGGGACCGUCCCCUCGGUAAUGGCGAAUGGAACCCA [A43U G82A],0.0811
21,GGCCGGCAUGGUCCCAGCCUCCUCGCUGGCGCCGGCUGGGCAAAAUUCCGAGGGGACCGUCCCCUCGGUACUGGCGAAUGGGACCCA [C44A A71C],0.332
22,GGCCGGCAUGGUCCCAGCCUCCUCGCUGGCGCCGGCUGGGCAGCAUGCCGAGGGGACCGUCCCCUCGGUAAUGGCGAAUGGGACCCA [A43G U47G],0.997

row,Variant,self-cleavage
1,GGCCGGCAUGGUCCCAGCCUCCUCGCUGGCGCCGGCUGGGCAAAAUUCCGAGGGGACCGUCCCCUCGGUAAUGGCGAAUGGGACGCA [C44A C85G],0.629
2,GGCCGGCAUGGUCCCAGCCUCCUCGCUGGCGCCGGCUGGGCAUCAUUCCGAGGGGACCGUCCCCUCGGUAAUGGCGAAUGGGAACCA [A43U C84A],0.346
3,GGCCGGCAUGGUCCCAGCCUCCUCGCUGGCGCCGGCUGGGCAGCAUUCCGAGGGGACCGUCCCCUCGGCAAUGGCGAAUGGGACCCA [A43G U69C],0.302
4,GGCCGGCAUGGUCCCAGCCUCCUCGCUGGCGCCGGCUGGGCAAAAUUCCGAGGGGACCGUCCCCUCGGUAAUGGCAAAUGGGACCCA [C44A G76A],0.873
5,GGCCGGCAUGGUCCCAGCCUCCUCGCUGGCGCCGGCUGGGCAAACUUCCGAGGGGACCGUCCCCUCGGUAAUGGCGAAUGGGACCCA [C44A A45C],0.692
6,GGCCGGCAUGGUCCCAGCCUCCUCGCUGGCGCCGGCUGGGCAUCAUUCCGAGGGGACCGUCCCCUCGGUAAUGGCGAAUGGGACGCA [A43U C85G],0.609
7,GGCCGGCAUGGUCCCAGCCUCCUCGCUGGCGCCGGCUGGGCAAAAUUCCGAGGGGACCGUCCCCUCGGUAAUGUCGAAUGGGACCCA [C44A G74U],0.702
8,GGCCGGCAUGGUCCCAGCCUCCUCGCUGGCGCCGGCUGGGCAUCAUUCCGAGGGGACCGUCCCCUCGGUAAUGGCGAACGGGACCCA [A43U U79C],0.127
9,GGCCGGCAUGGUCCCAGCCUCCUCGCUGGCGCCGGCUGGGCAUCAUUCCAAGGGGACCGUCCCCUCGGUAAUGGCGAAUGGGACCCA [A43U G50A],0.47
10,GGCCGGCAUGGUCCCAGCCUCCUCGCUGGCGCCGGCUGGGCAUCAUUCCGAGCGGACCGUCCCCUCGGUAAUGGCGAAUGGGACCCA [A43U G53C],0.508
11,GGCCGGCAUGGUCCCAGCCUCCUCGCUGGCGCCGGCUGGGCAAAAUUCCGAGGGCACCGUCCCCUCGGUAAUGGCGAAUGGGACCCA [C44A G55C],0.831
12,GGCCGGCAUGGUCCCAGCCUCCUCGCUGGCGCCGGCUGGGCAUCAUUCCGAGGGGAUCGUCCCCUCGGUAAUGGCGAAUGGGACCCA [A43U C57U],0.631
13,GGCCGGCAUGGUCCCAGCCUCCUCGCUGGCGCCGGCUGGGCAAAAUUCCGAGCGGACCGUCCCCUCGGUAAUGGCGAAUGGGACCCA [C44A G53C],0.686
14,GGCCGGCAUGGUCCCAGCCUCCUCGCUGGCGCCGGCUGGGCAUCAUUCCGAGGGGACCGUCCCCUCGGUAAUGCCGAAUGGGACCCA [A43U G74C],0.125
15,GGCCGGCAUGGUCCCAGCCUCCUCGCUGGCGCCGGCUGGGCAAAAUUCCGAGGGGACCGUCCCUUCGGUAAUGGCGAAUGGGACCCA [C44A C64U],0.665
16,GGCCGGCAUGGUCCCAGCCUCCUCGCUGGCGCCGGCUGGGCAUCAUUCCGAGGGGACCGUCUCCUCGGUAAUGGCGAAUGGGACCCA [A43U C62U],0.394
17,GGCCGGCAUGGUCCCAGCCUCCUCGCUGGCGCCGGCUGGGCAUCAUUCCGAGGGGACCGUCGCCUCGGUAAUGGCGAAUGGGACCCA [A43U C62G],0.332
18,GGCCGGCAUGGUCCCAGCCUCCUCGCUGGCGCCGGCUGGGCAGCAUUCCGAGGGGACCGUCCCCUCGGUAAUGGCGAAUCGGACCCA [A43G G80C],0.208
19,GGCCGGCAUGGUCCCAGCCUCCUCGCUGGCGCCGGCUGGGCAAAAUUCCGAGGGGACCGUCCCCUCGGUAAUGGCGAAUGGGACCCU [C44A A87U],0.686
20,GGCCGGCAUGGUCCCAGCCUCCUCGCUGGCGCCGGCUGGGCAAAAUUCCGAGGGGACCGUCCCCUCGGGAAUGGCGAAUGGGACCCA [C44A U69G],0.609
21,GGCCGGCAUGGUCCCAGCCUCCUCGCUGGCGCCGGCUGGGCAUCAUUCCGAGGGGACCGUUCCCUCGGUAAUGGCGAAUGGGACCCA [A43U C61U],0.302
22,GGCCGGCAUGGUCCCAGCCUCCUCGCUGGCGCCGGCUGGGCAGCAUUCCGAGGGGACCGUCCCCACGGUAAUGGCGAAUGGGACCCA [A43G U65A],0.554

row,Variant,self-cleavage
1,GGCCGGCAUGGUCCCAGCCUCCUCGCUGGCGCCGGCUGGGCAAGCUUCCGAGGGGACCGUCCCCUCGGUAAUGGCGAAUGGGACCCA [C44G A45C],0.578
2,GGCCGGCAUGGUCCCAGCCUCCUCGCUGGCGCCGGCUGGGCAUCAUUGCGAGGGGACCGUCCCCUCGGUAAUGGCGAAUGGGACCCA [A43U C48G],0.435
3,GGCCGGCAUGGUCCCAGCCUCCUCGCUGGCGCCGGCUGGGCAAAAUUCCCAGGGGACCGUCCCCUCGGUAAUGGCGAAUGGGACCCA [C44A G50C],0.702
4,GGCCGGCAUGGUCCCAGCCUCCUCGCUGGCGCCGGCUGGGCAAAAUUCCGAGGGGACCCUCCCCUCGGUAAUGGCGAAUGGGACCCA [C44A G59C],0.796
5,GGCCGGCAUGGUCCCAGCCUCCUCGCUGGCGCCGGCUGGGCAAAAUUCCGAGGGGACCAUCCCCUCGGUAAUGGCGAAUGGGACCCA [C44A G59A],0.762
6,GGCCGGCAUGGUCCCAGCCUCCUCGCUGGCGCCGGCUGGGCAUCAUUCCGAGGGGACCGUCCACUCGGUAAUGGCGAAUGGGACCCA [A43U C63A],0.716
7,GGCCGGCAUGGUCCCAGCCUCCUCGCUGGCGCCGGCUGGGCAAGAUUCCGAGGGGUCCGUCCCCUCGGUAAUGGCGAAUGGGACCCA [C44G A56U],0.734
8,GGCCGGCAUGGUCCCAGCCUCCUCGCUGGCGCCGGCUGGGCAGCAUUCCGAGGGGACCGCCCCCUCGGUAAUGGCGAAUGGGACCCA [A43G U60C],0.415
9,GGCCGGCAUGGUCCCAGCCUCCUCGCUGGCGCCGGCUGGGCAGCAUUCCGAGGGGACCGUCCCCUCGGUAAUGGCGAAUGCGACCCA [A43G G81C],0
10,GGCCGGCAUGGUCCCAGCCUCCUCGCUGGCGCCGGCUGGGCAGCAUUCCGAGGGGACCGUCCCCUCGGUAAUGGCUAAUGGGACCCA [A43G G76U],0.892
11,GGCCGGCAUGGUCCCAGCCUCCUCGCUGGCGCCGGCUGGGCAUCAUUCCGAGGGGACCGACCCCUCGGUAAUGGCGAAUGGGACCCA [A43U U60A],0.594
12,GGCCGGCAUGGUCCCAGCCUCCUCGCUGGCGCCGGCUGGGCAUCAUUCCGAGGGAACCGUCCCCUCGGUAAUGGCGAAUGGGACCCA [A43U G55A],0.537
13,GGCCGGCAUGGUCCCAGCCUCCUCGCUGGCGCCGGCUGGGCAUCAUUCCGAGGGCACCGUCCCCUCGGUAAUGGCGAAUGGGACCCA [A43U G55C],0.399
14,GGCCGGCAUGGUCCCAGCCUCCUCGCUGGCGCCGGCUGGGCAAAAUUCCGAGGGGACCGUCCCCUCGGUAAUGGCGAAUGGGGCCCA [C44A A83G],0.443
15,GGCCGGCAUGGUCCCAGCCUCCUCGCUGGCGCCGGCUGGGCAAAAUUCCGAGGGGACCGUCCCCUCGGUAAGGGCGAAUGGGACCCA [C44A U72G],0.431
16,GGCCGGCAUGGUCCCAGCCUCCUCGCUGGCGCCGGCUGGGCAUCAUUCCGAUGGGACCGUCCCCUCGGUAAUGGCGAAUGGGACCCA [A43U G52U],0.339
17,GGCCGGCAUGGUCCCAGCCUCCUCGCUGGCGCCGGCUGGGCAUCAUUCCGACGGGACCGUCCCCUCGGUAAUGGCGAAUGGGACCCA [A43U G52C],0.743
18,GGCCGGCAUGGUCCCAGCCUCCUCGCUGGCGCCGGCUGGGCAUCAUUCCGAGGGGACCGUCCCCUCGGUAAUGGCGAAUGCGACCCA [A43U G81C],0.181
19,GGCCGGCAUGGUCCCAGCCUCCUCGCUGGCGCCGGCUGGGCAGCAUUCCGAGGGGACCGUCCCCUCGGUAACGGCGAAUGGGACCCA [A43G U72C],0.434
20,GGCCGGCAUGGUCCCAGCCUCCUCGCUGGCGCCGGCUGGGCAUCUUUCCGAGGGGACCGUCCCCUCGGUAAUGGCGAAUGGGACCCA [A43U A45U],0.594
